Reference: patent publication US20220356210A1, “A SERIES OF INJECTABLE HYDROGELS SELF-ASSEMBLED FROM SHORT PEPTIDES FOR VARIOUS BIOMEDICAL APPLICATIONS” (Agency for Science, Technology and Research, priority 2019, published 2022)
No end group written: not given here.

Experiments:
[1] = system: human dermal fibroblasts (HDFs); test: In vitro cytotoxicity, MTT assay; type: cell-based; settings: 2000 μg/mL, 24 h
Experimental: (§1) 1000 μL of HDFs or keratinocytes (10^5 cells per mL) were seeded onto the 12-well Transwell plates (Corning). IIK12 (1%) with various contents of antimicrobial peptides were dissolved in water and incubated at 37° C. overnight and 100 μL of gels were then transferred to the inserts of the Transwell plate. 1 mL of fresh medium was added into the inserts. The plates were incubated for 24 h before proceeding to MTT assay. It is noted that cells without any treatment and Mupirocin (GSK) were used as controls. The data were expressed as mean and standard deviation of three replicates and the tests were repeated 3 times.

[2] = system: human primary keratinocytes; test: In vitro cytotoxicity, MTT assay; type: cell-based; settings: 24 h
Experimental: as §1

[3] = Dynamic step strain amplitude test; type: physicochemical; settings: 2.0 (w/v) % in water
Description: The reduction of viscosity was attributed to the disruption of physical cross-links between the peptide molecules upon the application of shear stress. In order for a peptide gel construct containing a drug and/or cell/s to be delivered by syringe, it is essential that the disrupted gel with low viscosity could rapidly recover back into a stiff gel when the shear stress terminates. The ability of the peptide hydrogels to recover was investigated using a dynamic step strain amplitude test, where strain of 0.5% and 100% were periodically applied on the peptide hydrogels. […] After subjected 30 s of continuous high strain, the strain was reduced to 0.5%. […] This reversibility of peptide hydrogel in the presence of DMEM was further evaluated under the same conditions. […] The G′ value is reduced remarkably by ˜2000 times to ˜1 Pa when subjected a high stain of 100%. […] A similar phenomenon was also observed for IIK12 hydrogel, where the storage moduli of IIK12 hydrogel increased with increasing peptide concentrations (Table 5). […] This rheological behavior of the peptide hydrogels offers a great advantage for use as an injectable matrix for delivery of therapeutics such as drugs and cells. The fast recovery kinetics can be explained by the fact that the physical cross-links of the gel network immediately recovered after the high strain terminated.

S. aureus [4] = test: Killing kinetics test; type: cell-based; settings: 24 h of incubation
Experimental: The microbes were treated with peptide hydrogels as described above. At various time periods of treatment, the microbial samples were diluted for plating (LB Agar, 1st Base). Incubation conditions: 18 h, 37° C. for bacteria. The colony-forming units were counted after the incubation period. The experiment was repeated in independent settings three times.

[5] = Rheology, G′ and G″ at frequency of 1 Hz; type: physicochemical; settings: incubated at 37° C. overnight
Experimental: The gelation time was determined by the vial tilting method. […] Rheology experiments were performed at room temperature using a control-strain rheometer (ARES G2, TA instruments). The rheometer is equipped with two sensitive force transducers for torque ranging from 0.05 μN·m to 200 mN·m. […] The solution was vortexed and then incubated to form hydrogel. The gel was placed onto parallel-plate geometry (8 mm in diameter). The dynamic storage modulus (G′) and loss modulus (G″) were examined as a function of frequency from 1 to 100 rad/s. The measurements were carried out at a strain amplitude (y) to ensure the linearity of viscoelasticity. Flow sweep (viscosity changes as a function of shear rate) was also performed to study shear thinning properties of hydrogels.

S. aureus [6] = test: Antimicrobial activity of peptide hydrogels (OD and agar plating); type: cell-based; settings: control gel, IIK12 at 1%, no antimicrobial peptide
Experimental: (§2) Hydrogels for the antimicrobial assays were prepared in 96-well tissue culture plates (NUNC). Briefly, IIK12 (1%) with various contents of antimicrobial peptides was dissolved in water and vortexed. 50 μL of solution was transferred to the wells. Gelation occurred overnight at 37° C. The growth of microorganisms on hydrogels was measured using a broth dilution method. Briefly, 30 μL of microorganism suspension (3.5×10^5 CFU/mL) was introduced onto the hydrogels, and a 96-well plate and peptide hydrogel without antimicrobial peptides were used as controls. The optical density readings of bacterial solutions were monitored by measuring OD600 nm. The assay was performed in four replicates for each sample and the experiments were repeated at least three times. Antimicrobial activity was further tested through a spread plate method. Briefly, hydrogels were challenged with microorganism solution, at the end of treatment, microbial suspension on the hydrogel surface was withdrawn and diluted sequentially, and then plated on 1.5% LB agar plates. The plates were incubated for 24 h at 37° C. (48 h at room temperature for C. albicans). Microbial colonies were formed and counted. The experiments were performed in triplicate and were repeated three times.

C. albicans = test: as above; type: cell-based; settings: control gel, IIK12 at 1%, no antimicrobial peptide
Experimental: as §2

E. coli = test: as above; type: cell-based; settings: control gel, IIK12 at 1%, no antimicrobial peptide
Experimental: as §2

[7] = Gelation by vial tilting method; type: physicochemical
Experimental: The peptide powder was dissolved in water or other aqueous solutions at the required concentrations. Alternatively, the required salt may be added after the peptide aqueous solution is prepared. The hydrogel was formed by mixing the peptide aqueous solution and salt (if required). For example, the solution was vortexed and then incubated to form hydrogel. The hydrogel formed may be stored as formed, or may be dried, for example by freeze drying. Alternatively, the hydrogel may be formed as required. The gelation time was determined by the vial tilting method. […] Rheology experiments were performed at room temperature using a control-strain rheometer (ARES G2, TA instruments). The rheometer is equipped with two sensitive force transducers for torque ranging from 0.05 μN·m to 200 mN·m. The peptide powder was dissolved in water at concentrations ranging from 1.0 to 2.0 (w/v) %. The solution was vortexed and then incubated to form hydrogel. The gel was placed onto parallel-plate geometry (8 mm in diameter). The dynamic storage modulus (G′) and loss modulus (G″) were examined as a function of frequency from 1 to 100 rad/s. The measurements were carried out at a strain amplitude (y) to ensure the linearity of viscoelasticity. Flow sweep (viscosity changes as a function of shear rate) was also performed to study shear thinning properties of hydrogels.

S. aureus [8] = test: Disk diffusion assay; type: cell-based; settings: hydrogel cast on inoculated agar, one day at 37° C.
Experimental: Antimicrobial activity was further tested through a disk diffusion assay. Briefly, microbial suspension (S. aureus, ATCC No. 6538) with 3.5×10^6 CFU/mL (40 μL) was spread on 1.5% LB agar plates. Disks (Sigma) were prepared to contain 50 μL of peptides with various concentrations by dripping 50 μL of peptides solutions onto a sterile disk. Disks were air-dried for several minutes before being placed onto different zones in the agar plates. Hydrogels (100 μL) were placed onto LB agar plates. The plates were incubated for 24 h at 37° C.

C/C(=C\C(=O)OCCCCCCCCC(=O)O)C[C@@H]1OC[C@H](C[C@@H]2O[C@H]2[C@@H](C)[C@H](C)O)[C@@H](O)[C@H]1O [Mupirocin, reference compound]
Cell viability [1]: more than 80%
Cell viability [2]: 80-90%

IRIKIEIEIRIK (IRIKIEIEIRIK-NH2) [IIK12]
Rheological behavior in dynamic step strain amplitude measurement [3]: reversible rheological behavior
Log (CFU) (S. aureus [4]): 9.28
G′ (storage modulus) ([5]; 0.6 wt %, H2O): 65 Pa
G″ (loss modulus) ([5]; 0.6 wt %, H2O): 7 Pa
G′ (storage modulus) ([5]; 0.8 wt %, H2O): 131 Pa
G″ (loss modulus) ([5]; 0.8 wt %, H2O): 24 Pa
G′ (storage modulus) ([5]; 1.0 wt %, DMEM): 1206 Pa
G″ (loss modulus) ([5]; 1.0 wt %, DMEM): 176 Pa
G′ (storage modulus) ([5]; 1.0 wt %, H2O): 279 Pa
G″ (loss modulus) ([5]; 1.0 wt %, H2O): 48 Pa
G′ (storage modulus) ([5]; 1.5 wt %, H2O): 598 Pa
G″ (loss modulus) ([5]; 1.5 wt %, H2O): 66 Pa
G′ (storage modulus) ([5]; 2.0 wt %, H2O): 865 Pa
G″ (loss modulus) ([5]; 2.0 wt %, H2O): 69 Pa
Killing of the microbes (OD measurement and agar plating) (S. aureus [6]): ineffective
Killing of the microbes (OD measurement and agar plating) (C. albicans): ineffective
Killing of the microbes (OD measurement and agar plating) (E. coli): ineffective
Lowest concentration at which hydrogels self-assembled ([7]; aqueous solution): 0.6 (w/v) %
Gelation in DI water at 37° C. (via tilting) ([7]; peptide conc. 0.6, 1.0 %): Gel
S. aureus colony formation on agar in contact with gel (S. aureus [8]): ineffective
